From article PMC12207588

Test system: P02768
Experiment: SEC; BioSep SEC-s2000 column, PBS pH 7.4, 1 mL/min; share of monomer, dimer and trimer from the UV trace at 280 nm

Substance	percent HSA dimer (SEC UV trace at 280 nm)	percent dimer and trimer together (SEC UV trace at 280 nm)	percent HSA trimer (SEC UV trace at 280 nm)
Recombinant human serum albumin, lyophilized, A9731 (HSA4)	10.2% (7.2 min)		
DFO*malHSA (HSA1 conjugated with DFO*maleimide at Cys34)		the other 5% of the UV trace corresponds to the albumin dimer and trimer	
Human serum albumin, lyophilized powder from human serum, A3782 (HSA3)	3.4% (7.3 min)		
Human serum albumin, pharmaceutical solution Albunorm (HSA1)	1.1% (7.1 min)		2.9% (5.6 min)
Human serum albumin, lyophilized powder from human serum, A1693 (HSA2)	10.7% (6.7 min)		
